The record followed here is PMC11399405.

One data set addresses SPD_1558 (Streptococcus pneumoniae D39, UniProt A0A0H2ZMV6 1-103). In words: EMSA. On the technique in general: Mobility shift assays separate free from complexed probe on a gel.
The next data set deals with SPD_1777 (Streptococcus pneumoniae D39, UniProt A0A0H2ZNW3 1-317). Briefly: EMSA.

B1: IGR1729/1728 and flanking RNA (55 nt) (ssRNA)
RNA: GCUAGUGCAGAUGCUCCAGUUAAAAAAGAGUAGGAGGUAGAGGAAAUGUCUCAAU
Turning to B1, the binding result with SPD_1558 and with SPD_1777 was “binds” each time.
